Data published in doi:10.1101/2025.08.30.673243.

Columns and labels:
[1] = target: HeLa cohesin (unlabelled cohesin-STAG1) (human (endogenous in HeLa)) (UniProt Q14683); assay: single-molecule fluorescence imaging of DNA loop extrusion
[2] = target: HeLa cohesin (unlabelled cohesin-STAG1) (human (endogenous in HeLa)) (UniProt Q14683); assay: as above; remark: listed apart in the source

Chain of UniProt Q14683 (Q14683 whole entry, chain 1 of 4): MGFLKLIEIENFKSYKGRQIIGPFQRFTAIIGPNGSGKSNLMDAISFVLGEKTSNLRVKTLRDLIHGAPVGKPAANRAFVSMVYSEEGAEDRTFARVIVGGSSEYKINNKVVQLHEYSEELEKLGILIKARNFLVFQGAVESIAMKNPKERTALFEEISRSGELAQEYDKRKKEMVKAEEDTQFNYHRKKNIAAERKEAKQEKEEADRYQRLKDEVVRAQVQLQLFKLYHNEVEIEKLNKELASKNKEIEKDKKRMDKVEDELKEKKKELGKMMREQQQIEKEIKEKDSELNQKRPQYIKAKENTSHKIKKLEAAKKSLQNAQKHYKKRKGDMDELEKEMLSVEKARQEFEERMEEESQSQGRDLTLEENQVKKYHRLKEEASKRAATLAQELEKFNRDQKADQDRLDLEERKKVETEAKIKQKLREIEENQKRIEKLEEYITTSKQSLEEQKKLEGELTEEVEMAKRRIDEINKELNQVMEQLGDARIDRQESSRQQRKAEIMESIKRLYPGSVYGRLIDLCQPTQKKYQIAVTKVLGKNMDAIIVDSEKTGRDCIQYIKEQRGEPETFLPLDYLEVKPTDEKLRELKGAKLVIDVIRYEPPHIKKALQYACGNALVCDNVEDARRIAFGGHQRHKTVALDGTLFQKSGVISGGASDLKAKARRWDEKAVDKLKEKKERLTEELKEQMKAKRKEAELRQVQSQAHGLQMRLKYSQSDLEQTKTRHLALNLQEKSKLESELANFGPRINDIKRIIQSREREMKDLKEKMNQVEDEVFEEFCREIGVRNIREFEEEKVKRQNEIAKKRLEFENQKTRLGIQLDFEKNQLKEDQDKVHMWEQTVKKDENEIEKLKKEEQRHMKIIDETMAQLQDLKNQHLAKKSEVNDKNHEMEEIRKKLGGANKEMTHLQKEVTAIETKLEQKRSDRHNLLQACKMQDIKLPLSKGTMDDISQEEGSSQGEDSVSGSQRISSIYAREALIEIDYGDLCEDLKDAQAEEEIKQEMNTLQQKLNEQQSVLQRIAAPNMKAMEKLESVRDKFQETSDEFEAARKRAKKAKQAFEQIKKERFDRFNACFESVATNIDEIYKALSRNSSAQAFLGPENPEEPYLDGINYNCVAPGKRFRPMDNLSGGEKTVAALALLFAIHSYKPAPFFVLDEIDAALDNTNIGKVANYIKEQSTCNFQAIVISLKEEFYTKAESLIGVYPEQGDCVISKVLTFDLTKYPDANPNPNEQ
Chain of UniProt Q14683 (Q9UQE7 whole entry, chain 2 of 4, further chain): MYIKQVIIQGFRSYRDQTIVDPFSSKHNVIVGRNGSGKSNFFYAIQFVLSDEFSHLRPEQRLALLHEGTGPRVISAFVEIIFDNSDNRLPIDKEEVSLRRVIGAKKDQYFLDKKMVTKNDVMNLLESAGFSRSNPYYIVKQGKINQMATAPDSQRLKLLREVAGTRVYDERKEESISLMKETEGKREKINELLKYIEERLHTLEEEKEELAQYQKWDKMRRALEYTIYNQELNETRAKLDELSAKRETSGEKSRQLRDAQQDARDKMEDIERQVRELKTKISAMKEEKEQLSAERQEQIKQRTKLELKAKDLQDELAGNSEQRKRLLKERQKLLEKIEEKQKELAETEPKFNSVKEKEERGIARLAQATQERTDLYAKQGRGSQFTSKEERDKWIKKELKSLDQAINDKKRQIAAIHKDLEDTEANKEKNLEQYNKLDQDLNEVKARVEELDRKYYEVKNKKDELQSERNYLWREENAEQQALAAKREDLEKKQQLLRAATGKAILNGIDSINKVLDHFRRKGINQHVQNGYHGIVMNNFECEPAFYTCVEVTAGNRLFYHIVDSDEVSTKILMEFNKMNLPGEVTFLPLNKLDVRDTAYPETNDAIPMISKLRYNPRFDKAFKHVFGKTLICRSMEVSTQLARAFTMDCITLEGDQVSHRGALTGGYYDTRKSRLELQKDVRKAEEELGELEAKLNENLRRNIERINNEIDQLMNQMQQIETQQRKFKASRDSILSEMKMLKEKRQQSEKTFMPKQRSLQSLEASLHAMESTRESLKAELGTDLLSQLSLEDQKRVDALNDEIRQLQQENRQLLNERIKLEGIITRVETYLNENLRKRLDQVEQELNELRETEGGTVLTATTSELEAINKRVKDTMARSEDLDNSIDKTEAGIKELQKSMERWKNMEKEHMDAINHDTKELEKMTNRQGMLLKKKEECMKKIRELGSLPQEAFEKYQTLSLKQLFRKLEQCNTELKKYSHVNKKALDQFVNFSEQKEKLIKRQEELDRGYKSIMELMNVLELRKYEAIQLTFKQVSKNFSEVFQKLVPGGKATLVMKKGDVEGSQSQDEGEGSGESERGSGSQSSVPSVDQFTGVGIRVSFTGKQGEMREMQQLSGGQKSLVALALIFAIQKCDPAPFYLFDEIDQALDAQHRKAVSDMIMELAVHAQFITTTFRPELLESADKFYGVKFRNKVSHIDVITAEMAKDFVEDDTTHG
Chain of UniProt Q14683 (O60216 whole entry, chain 3 of 4, further chain): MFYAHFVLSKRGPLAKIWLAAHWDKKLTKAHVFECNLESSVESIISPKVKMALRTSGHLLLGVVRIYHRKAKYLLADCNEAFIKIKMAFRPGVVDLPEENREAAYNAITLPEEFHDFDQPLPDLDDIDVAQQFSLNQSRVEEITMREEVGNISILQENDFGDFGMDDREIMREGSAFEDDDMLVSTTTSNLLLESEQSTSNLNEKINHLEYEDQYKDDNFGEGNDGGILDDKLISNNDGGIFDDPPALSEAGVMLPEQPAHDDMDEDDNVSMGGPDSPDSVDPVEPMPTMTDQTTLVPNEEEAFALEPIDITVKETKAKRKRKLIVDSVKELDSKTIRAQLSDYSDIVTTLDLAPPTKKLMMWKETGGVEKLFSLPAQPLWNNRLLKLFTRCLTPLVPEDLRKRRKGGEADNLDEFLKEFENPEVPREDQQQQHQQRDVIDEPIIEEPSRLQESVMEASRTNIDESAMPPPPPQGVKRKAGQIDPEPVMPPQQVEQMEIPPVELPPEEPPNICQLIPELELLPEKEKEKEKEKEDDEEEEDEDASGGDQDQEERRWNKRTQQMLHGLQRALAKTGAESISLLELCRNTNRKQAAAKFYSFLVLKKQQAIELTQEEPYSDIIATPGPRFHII
Chain of UniProt Q14683 (Q8WVM7 whole entry, chain 4 of 4, further chain): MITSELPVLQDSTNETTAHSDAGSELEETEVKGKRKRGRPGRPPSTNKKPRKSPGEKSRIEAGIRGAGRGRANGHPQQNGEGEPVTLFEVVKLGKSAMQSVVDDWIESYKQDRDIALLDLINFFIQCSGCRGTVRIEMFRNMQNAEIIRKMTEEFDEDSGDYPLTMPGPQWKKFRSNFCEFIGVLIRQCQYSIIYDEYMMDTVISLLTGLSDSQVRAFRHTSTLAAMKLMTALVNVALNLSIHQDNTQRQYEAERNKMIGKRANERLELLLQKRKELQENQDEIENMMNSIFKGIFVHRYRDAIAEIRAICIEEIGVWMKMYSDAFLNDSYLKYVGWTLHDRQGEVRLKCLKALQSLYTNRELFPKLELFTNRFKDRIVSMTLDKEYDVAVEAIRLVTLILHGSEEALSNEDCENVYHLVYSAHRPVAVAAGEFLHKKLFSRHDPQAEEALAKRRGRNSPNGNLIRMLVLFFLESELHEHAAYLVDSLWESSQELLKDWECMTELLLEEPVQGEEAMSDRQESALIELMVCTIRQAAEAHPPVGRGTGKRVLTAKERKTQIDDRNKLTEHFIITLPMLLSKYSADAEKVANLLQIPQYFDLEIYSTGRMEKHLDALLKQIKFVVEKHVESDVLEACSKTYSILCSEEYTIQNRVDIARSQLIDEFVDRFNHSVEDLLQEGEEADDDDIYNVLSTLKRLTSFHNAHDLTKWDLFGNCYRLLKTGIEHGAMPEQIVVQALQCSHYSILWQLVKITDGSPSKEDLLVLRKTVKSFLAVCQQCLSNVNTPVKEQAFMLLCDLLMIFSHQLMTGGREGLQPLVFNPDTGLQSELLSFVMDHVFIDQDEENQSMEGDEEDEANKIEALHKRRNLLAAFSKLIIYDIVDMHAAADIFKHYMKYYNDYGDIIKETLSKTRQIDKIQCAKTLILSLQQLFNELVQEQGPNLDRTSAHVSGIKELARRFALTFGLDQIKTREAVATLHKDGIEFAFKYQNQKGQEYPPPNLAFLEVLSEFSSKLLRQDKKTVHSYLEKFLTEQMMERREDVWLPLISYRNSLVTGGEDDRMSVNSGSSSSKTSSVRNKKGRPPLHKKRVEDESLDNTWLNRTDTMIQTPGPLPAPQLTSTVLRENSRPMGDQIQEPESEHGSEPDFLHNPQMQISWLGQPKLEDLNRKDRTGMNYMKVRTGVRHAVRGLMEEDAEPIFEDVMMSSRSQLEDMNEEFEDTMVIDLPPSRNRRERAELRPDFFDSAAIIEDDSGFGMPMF

A median residence time of NIPBL on loops, no PDS5B added [1] of 50 s and a residence time of NIPBL on loops on which NIPBL was exchanged with PDS5B [1] of 38 s were found for “NIPBL-ΔN labelled with ATTO550 (BB241) (domain or fragment)” in this work.

B1: PDS5B labelled with JF646 (natural protein)
chain: MAHSKTRTNDGKITYPPGVKEISDKISKEEMVRRLKMVVKTFMDMDQDSEEEKELYLNLALHLASDFFLKHPDKDVRLLVACCLADIFRIYAPEAPYTSPDKLKDIFMFITRQLKGLEDTKSPQFNRYFYLLENIAWVKSYNICFELEDSNEIFTQLYRTLFSVINNGHNQKVHMHMVDLMSSIICEGDTVSQELLDTVLVNLVPAHKNLNKQAYDLAKALLKRTAQAIEPYITNFFNQVLMLGKTSISDLSEHVFDLILELYNIDSHLLLSVLPQLEFKLKSNDNEERLQVVKLLAKMFGAKDSELASQNKPLWQCYLGRFNDIHVPIRLECVKFASHCLMNHPDLAKDLTEYLKVRSHDPEEAIRHDVIVSIVTAAKKDILLVNDHLLNFVRERTLDKRWRVRKEAMMGLAQIYKKYALQSAAGKDAAKQIAWIKDKLLHIYYQNSIDDRLLVERIFAQYMVPHNLETTERMKCLYYLYATLDLNAVKALNEMWKCQNLLRHQVKDLLDLIKQPKTDASVKAIFSKVMVITRNLPDPGKAQDFMKKFTQVLEDDEKIRKQLEVLVSPTCSCKQAEGCVREITKKLGNPKQPTNPFLEMIKFLLERIAPVHIDTESISALIKQVNKSIDGTADDEDEGVPTDQAIRAGLELLKVLSFTHPISFHSAETFESLLACLKMDDEKVAEAALQIFKNTGSKIEEDFPHIRSALLPVLHHKSKKGPPRQAKYAIHCIHAIFSSKETQFAQIFEPLHKSLDPSNLEHLITPLVTIGHIALLAPDQFAAPLKSLVATFIVKDLLMNDRLPGKKTTKLWVPDEEVSPETMVKIQAIKMMVRWLLGMKNNHSKSGTSTLRLLTTILHSDGDLTEQGKISKPDMSRLRLAAGSAIVKLAQEPCYHEIITLEQYQLCALAINDECYQVRQVFAQKLHKGLSRLRLPLEYMAICALCAKDPVKERRAHARQCLVKNINVRREYLKQHAAVSEKLLSLLPEYVVPYTIHLLAHDPDYVKVQDIEQLKDVKECLWFVLEILMAKNENNSHAFIRKMVENIKQTKDAQGPDDAKMNEKLYTVCDVAMNIIMSKSTTYSLESPKDPVLPARFFTQPDKNFSNTKNYLPPEMKSFFTPGKPKTTNVLGAVNKPLSSAGKQSQTKSSRMETVSNASSSSNPSSPGRIKGRLDSSEMDHSENEDYTMSSPLPGKKSDKRDDSDLVRSELEKPRGRKKTPVTEQEEKLGMDDLTKLVQEQKPKGSQRSRKRGHTASESDEQQWPEEKRLKEDILENEDEQNSPPKKGKRGRPPKPLGGGTPKEEPTMKTSKKGSKKKSGPPAPEEEEEEERQSGNTEQKSKSKQHRVSRRAQQRAESPESSAIESTQSTPQKGRGRPSKTPSPSQPKKNVRVGRSKQAATKENDSSEEVDVFQGSSPVDDIPQEETEEEEVSTVNVRRRSAKRERR
modifications: JF646-HaloTag ligand on the HaloTag
A median time for which NIPBL and PDS5B were both on the loop during exchange [2] of 3 s was found for B1 in this work.
